The record followed here is the supplement of paper PMC5998384.

Series [1] concerns HeLa Kyoto. As to the kind of experiment: melting temperature (median over replicates), in situ; higher = more thermally stable.
Series [2] relates to HeLa Kyoto. As to the kind of experiment: thermal stability score vs G1/S (z-score of summed log2 fold changes over temperatures); higher = more thermally stable than in G1/S.
In series [3] the test system is HeLa Kyoto. As to the kind of experiment: solubility change mitosis vs G1/S (difference of NP-40 vs SDS log2 ratios) (log2 ratio difference); higher = more soluble in mitosis.
The subject of series [4] is HeLa Kyoto. As to the kind of experiment: solubility in G1/S (NP-40 vs SDS abundance) (log2 ratio); higher = more soluble. As to conditions: cell cycle stage: G1/S.
The mark [5] stands for this setting: cell cycle stage: early G1 (4.5 h after nocodazole release).
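Throughout, for melting temperature (median over replicates), in situ: HeLa Kyoto cells synchronized by double thymidine or nocodazole block, proteins quantified by TMT10plex mass spectrometry, three independent biological replicates.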
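Throughout, for solubility change mitosis vs G1/S (difference of NP-40 vs SDS log2 ratios): synchronized HeLa Kyoto cells (double thymidine block for G1/S, nocodazole release for mitosis), protein amounts in NP-40 versus SDS lysates quantified by mass spectrometry, three biological replicates.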
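Throughout, for solubility in G1/S (NP-40 vs SDS abundance): HeLa Kyoto cells arrested at G1/S by double thymidine block, proteins quantified by TMT10plex mass spectrometry in mild NP-40 versus SDS extracts, three biological replicates.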
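Throughout, for thermal stability score vs G1/S (z-score of summed log2 fold changes over temperatures): synchronized HeLa Kyoto cells, proteins quantified by TMT10plex mass spectrometry, three biological replicates, mitosis taken 0.5 h after nocodazole release, G1/S directly after double thymidine block.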

“MDRMASSMKQVPNPLPKVLSRRGVGAGLEAAERESFERTQTVSINKAINTQEVAVKEKHARTCILGTHHEKGAQTFWSVVNRLPLSSNAVLCWKFCHVFHKLLRDGHPNVLKDSLRYRNELSDMSRMWGHLSEGYGQLCSIYLKLLRTKMEYHTKNPRFPGNLQMSDRQLDEAGESDVNNFFQLTVEMFDYLECELNLFQTVFNSLDMSRSVSVTAAGQCRLAPLIQVILDCSHLYDYTVKLLFKLHSCLPADTLQGHRDRFMEQFTKLKDLFYRSSNLQYFKRLIQIPQLPENPPNFLRASALSEHISPVVVIPAEASSPDSEPVLEKDDLMDMDASQQNLFDNKFDDIFGSSFSSDPFNFNSQNGVNKDEKDHLIERLYREISGLKAQLENMKTESQRVVLQLKGHVSELEADLAEQQHLRQQAADDCEFLRAELDELRRQREDTEKAQRSLSEIERKAQANEQRYSKLKEKYSELVQNHADLLRKNAEVTKQVSMARQAQVDLEREKKELEDSLERISDQGQRKTQEQLEVLESLKQELATSQRELQVLQGSLETSAQSEANWAAEFAELEKERDSLVSGAAHREEELSALRKELQDTQLKLASTEESMCQLAKDQRKMLLVGSRKAAEQVIQDALNQLEEPPLISCAGSADHLLSTVTSISSCIEQLEKSWSQYLACPEDISGLLHSITLLAHLTSDAIAHGATTCLRAPPEPADSLTEACKQYGRETLAYLASLEEEGSLENADSTAMRNCLSKIKAIGEELLPRGLDIKQEELGDLVDKEMAATSAAIETATARIEEMLSKSRAGDTGVKLEVNERILGCCTSLMQAIQVLIVASKDLQREIVESGRGTASPKEFYAKNSRWTEGLISASKAVGWGATVMVDAADLVVQGRGKFEELMVCSHEIAASTAQLVAASKVKADKDSPNLAQLQQASRGVNQATAGVVASTISGKSQIEETDNMDFSSMTLTQIKRQEMDSQVRVLELENELQKERQKLGELRKKHYELAGVAEGWEEGTEASPPTLQEVVTEKE [HIP1]”: the melting temperature was 49.9 °C in the series with HeLa Kyoto [1] (cell cycle stage: G1/S) and 50.2 °C in the series with HeLa Kyoto [1] (cell cycle stage: mitosis). In addition, the results for the thermal stability score in the series with HeLa Kyoto [2] (setting [5]) and with HeLa Kyoto [2] (cell cycle stage: mitosis) were 0.173 and 1.11, respectively. Further, the “solubility change mitosis (log2)” value with HeLa Kyoto [3] was determined as 0.0765. Moreover, in the series with HeLa Kyoto [4], the “solubility in G1/S (log2)” value is 0.0989.
“MDRSAEFRKWKAQCLSKADLSRKGSVDEDVVELVQFLNMRDQFFTTSSCAGRILLLDRGINGFEVQKQNCCWLLVTHKLCVKDDVIVALKKANGDATLKFEPFVLHVQCRQLQDAQILHSMAIDSGFRNSGITVGKRGKTMLAVRSTHGLEVPLSHKGKLMVTEEYIDFLLNVANQKMEENKKRIERFYNCLQHALERETMTNLHPKIKEKNNSSYIHKKKRNPEKTRAQCITKESDEELENDDDDDLGINVTIFPEDY [TYW3]”: the melting temperature stood at 55 °C with HeLa Kyoto [1] (cell cycle stage: G1/S) and 54.9 °C in the series on HeLa Kyoto [1] (cell cycle stage: mitosis). Besides, the thermal stability score was -0.67 with HeLa Kyoto [2] (setting [5]) and -1.25 in the series on HeLa Kyoto [2] (cell cycle stage: mitosis). The “solubility change mitosis (log2)” value with HeLa Kyoto [3] was -0.194. Moreover, in the series on HeLa Kyoto [4], the “solubility in G1/S (log2)” value was determined as 0.102.
The sequence “MDRSSKRRQVKPLAASLLEALDYDSSDDSDFKVGDASDSEGSGNGSEDASKDSGEGSCSDSEENILEEELNEDIKVKEEQLKNSAEEEVLSSEKQLIKMEKKEEEENGERPRKKKEKEKEKEKEKEKEKEREKEKEKATVSENVAASAAATTPATSPPAVNTSPSVPTTTTATEEQVSEPKKWNLRRNRPLLDFVSMEELNDMDDYDSEDDNDWRPTVVKRKGRSASQKEGSDGDNEDDEDEGSGSDEDENDEGNDEDHSSPASEGGCKKKKSKVLSRNSADDEELTNDSLTLSQSKSNEDSLILEKSQNWSSQKMDHILICCVCLGDNSEDADEIIQCDNCGITVHEGCYGVDGESDSIMSSASENSTEPWFCDACKCGVSPSCELCPNQDGIFKETDAGRWVHIVCALYVPGVAFGDIDKLRPVTLTEMNYSKYGAKECSFCEDPRFARTGVCISCDAGMCRAYFHVTCAQKEGLLSEAAAEEDIADPFFAYCKQHADRLDRKWKRKNYLALQSYCKMSLQEREKQLSPEAQARINARLQQYRAKAELARSTRPQAWVPREKLPRPLTSSASAIRKLMRKAELMGISTDIFPVDNSDTSSSVDGRRKHKQPALTADFVNYYFERNMRMIQIQENMAEQKNIKDKLENEQEKLHVEYNKLCESLEELQNLNGKLRSEGQGIWALLGRITGQKLNIPAILRAPKERKPSKKEGGTQKTSTLPAVLYSCGICKKNHDQHLLLLCDTCKLHYHLGCLDPPLTRMPRKTKNSYWQCSECDQAGSSDMEADMAMETLPDGTKRSRRQIKEPVKFVPQDVPPEPKKIPIRNTRTRGRKRSFVPEEEKHEERVPRERRQRQSVLQKKPKAEDLRTECATCKGTGDNENLVRCDECRLCYHFGCLDPPLKKSPKQTGYGWICQECDSSSSKEDENEAERKNISQELNMEQKNPKK [PHF14]” gave a melting temperature with HeLa Kyoto [1] (cell cycle stage: mitosis) of 50.1 °C. Further, the thermal stability score in the series on HeLa Kyoto [2] (setting [5]) is -0.0393; in the series with HeLa Kyoto [2] (cell cycle stage: mitosis), 2.42. In addition, the “solubility change mitosis (log2)” value with HeLa Kyoto [3] turned out to be 0.708. The “solubility in G1/S (log2)” value with HeLa Kyoto [4] is -1.13.
